The chains are these.
B1: Growth factor receptor-bound protein 7 (Mus musculus), Q03160 (parent)
chain: MELDLSPTHLSSSPEDVCPTPATPPETPPPPDNPPPGDVKRSQPLPIPSSRKLREEEFQATSLPSIPNPFPELCSPPSQKPILGGSSGARGLLPRDSSRLCVVKVYSEDGACRSVEVAAGATARHVCEMLVQRAHALSDESWGLVESHPYLALERGLEDHEFVVEVQEAWPVGGDSRFIFRKNFAKYELFKSPPHTLFPEKMVSSCLDAQTGISHEDLIQNFLNAGSFPEIQGFLQLRGSGRGSGRKLWKRFFCFLRRSGLYYSTKGTSKDPRHLQYVADVNESNVYVVTQGRKLYGMPTDFGFCVKPNKLRNGHKGLHIFCSEDEQSRTCWLAAFRLFKYGVQLYKNYQQAQSRHLRLSYLGSPPLRSVSDNTLVAMDFSGHAGRVIDNPREALSAAMEEAQAWRKKTNHRLSLPTTCSGSSLSAAIHRTQPWFHGRISREESQRLIGQQGLVDGVFLVRESQRNPQGFVLSLCHLQKVKHYLILPSEDEGCLYFSMDEGQTRFTDLLQLVEFHQLNRGILPCLLRHCCARVAL

In this test the parent is B1. To be noted: with elav1_mouse Elavl1, P70372.
Chain of elav1_mouse Elavl1, P70372 (P70372 whole entry): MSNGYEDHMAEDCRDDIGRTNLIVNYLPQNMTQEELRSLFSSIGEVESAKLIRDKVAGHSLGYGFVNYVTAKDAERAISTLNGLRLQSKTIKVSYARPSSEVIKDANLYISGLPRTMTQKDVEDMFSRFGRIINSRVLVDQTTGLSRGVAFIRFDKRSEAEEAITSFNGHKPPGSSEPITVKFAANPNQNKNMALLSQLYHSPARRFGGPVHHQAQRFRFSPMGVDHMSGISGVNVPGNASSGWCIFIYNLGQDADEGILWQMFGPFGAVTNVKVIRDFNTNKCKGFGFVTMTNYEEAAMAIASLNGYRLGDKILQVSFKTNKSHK
On to Y495F, for which the “effect of a mutation on the interaction” value is “increasing interaction”.

For the origin of these results see IntAct's records for PubMed 18273060.
